Measured values reported in article PMC6047474.
Where two headings read alike, the source gives them in different places.

Legend:
[1] = biological target: Histones (bovine), Sigma-Aldrich H9250 (bovine); assay: ITC
[2] = biological target: Histones (bovine), Sigma-Aldrich H9250 (bovine); assay: ITC; remark: listed apart in the source

Ka [1]	Kd [1]	dH [1]	Ka [2]	Kd [2]	dH [2]	Molecule
7.85e+06 M⁻¹	127 nM	-13.4 kcal/mol	9.79e+06 M⁻¹	102 nM	-15.8 kcal/mol	γ-crystallin
1.15e+07 M⁻¹	86.4 nM	-10.7 kcal/mol	1.35e+06 M⁻¹	743 nM	-8.86 kcal/mol	βL-crystallin (complex)
	400 nM	-6.29 kcal/mol	3.42e+07 M⁻¹	29.3 nM		α-crystallin (complex) chain 1: MDIAIQHPWFKRALGPFYPSRLFDQFFGEGLFEYDLLPFLSSTISPYYRQSLFRTVLDSGVSEVRSDRDKFVIFLDVKHFSPEDLTVKVQEDFVEIHGKHNERQDDHGYISREFHRRYRLPSNVDQSALSCSLSADGMLTFSGPKVPSGVDAGHSERAIPVSREEKPSSAPTS chain 2: MDIAIHHPWIRRPFFPFHSPSRLFDQFFGEHLLESDLFPASTSLSPFYFRPPSFLRAPSWIDTGLSEMRLEKDRFSVNLDVKHFSPEELKVKVLGDVIEVHGKHEERQDEHGFISREFHRKYRIPADVDPLTITSSLSSDGVLTVNGPRRQASGPERTIPITREEKPAVTAAPKK
